Data taken from patent US20240200089A1 (AGRIVIDA, published 2024).
Residue numbers refer to the chain shown, from its start.

B1: chIL10sdAB1D6 (VHH)
VHH: QVQLQASGGGLVQAGGSLRLSCQASESISSINTMGWFRQASGEEREFVAAIESGGATAYAESAKGRFTISRDNAKNTVYLQMNSLKPEDTAVYYCAAGVPTYDDDAMPISWRFWGRGTLVTVSS
notes: Llama single domain antibody; The construct used in the ELISA is not described; also called 44-IL-bR2-1D6
B2: chIL10sdAB1A11 (VHH, not shown: small tags and cut ends)
VHH: QVQLQESGGGLVQPGGSLRLSCAASGNIFSINTMGWYRQAPGKQRELVASITTGGTTNYEDSVKGRFTISRDNAKKTVYLQMNRLKPEDTAVYYCNHRRSYSGRDYPVYGMDYWGKGTLVTVSS
notes: Llama single domain antibody; also called 1A11 sdAB; 81-IL-bR2-1A11
B3: chIL10sdAB1B9 (VHH)
VHH: QVQLQESGGGLVQAGGSLRLSCAASGRTFSSYAWGWFRQAPGKEREFVARISFSGGHTYYSDSVKGRFTISRDNAKNTVYLQMNSLKPEDTAVYYCAADPTPYGLRNERNYPYWGQGTQVTVSS
notes: Llama single domain antibody; The construct used in the ELISA and the cell assay is not described
B4: chIL10sdAB1H1 (VHH)
VHH: B3 VHH with E6A, S30N, E46G, T78S, P112H
notes: Llama single domain antibody; The construct used in the ELISA is not described
B5: chIL10sdAB1F11 (VHH, not shown: small tags and cut ends)
VHH: QVQLQEFGGGLVQPGGSLRLSCAASGRTGSSYAMGWFRQAPGKEREFVAAISWSGGSTDYADSVKGRFTISRDNAKNTMYLQMNSLKPEDTAVYYCAVDRNLFKLRVAVQEYTNLGQGTQVTVSS
notes: Llama single domain antibody; also called 86-IL-bR2-1F11

Key:
chicken interleukin 10 [1] = target: T1, chicken interleukin 10 (chicken (Gallus gallus), UniProt Q6A2H4 22-174); assay: ELISA, sdAB titrated on cIL-10 coated plates
T1 construct: also called cIL-10; cIL10
T1 sequence: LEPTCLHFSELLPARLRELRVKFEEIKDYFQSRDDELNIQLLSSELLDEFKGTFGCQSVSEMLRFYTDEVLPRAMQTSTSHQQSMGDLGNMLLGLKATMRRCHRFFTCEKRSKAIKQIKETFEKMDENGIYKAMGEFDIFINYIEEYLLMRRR

chicken interleukin 10 [2] = target: T1, chicken interleukin 10; assay: cell-based or functional assay

Binder | EC50 (chicken interleukin 10 [1]) [nM] | apparent EC50, recovery of IFN-γ secretion in primary chicken spleen cells treated with ConA and cIL-10 (chicken interleukin 10 [2]) [nM]
B1 | ~100 | 
B2 | ~1 | 25
B3 | ~35 | 40
B4 | 20 | 
B5 | ~15 | 60
